Here are results for one molecule from article PMC11359509, “Anti-Skin Aging Potential, Antibacterial Activity, Inhibition of Single-Stranded DNA-Binding Protein, and Cytotoxic Effects of Acetone-Extracted Passiflora edulis (Tainung No. 1) Rind Extract on Oral”.

The target in this data set is KpSSB (single-stranded DNA-binding protein) (Klebsiella pneumoniae, UniProt A6TGW7 1-174). Put plainly: EMSA; no extract; [Protein]50; 40 mM Tris-HCl pH 7.5, 50 mM NaCl, 37 °C, 60 min; 30 fmol/uL biotinylated ssDNA; 8% native PAGE in TBE. As to conditions: protein: recombinant, tag not described, chain copies: 4.
KpSSB (single-stranded DNA-binding protein), sequence (A6TGW7 whole entry): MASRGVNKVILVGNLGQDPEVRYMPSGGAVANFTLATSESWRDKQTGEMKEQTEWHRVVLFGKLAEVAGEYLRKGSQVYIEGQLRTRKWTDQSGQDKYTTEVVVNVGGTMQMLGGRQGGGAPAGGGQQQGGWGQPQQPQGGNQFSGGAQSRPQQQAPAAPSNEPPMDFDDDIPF

For TTTTTTTTTTTTTTTTTTTTTTTTTTTTTTTTTTT (ssDNA) [dT35], the “apparent K (half saturation)” value is 206 ± 14.3 nM.
